For 27 molecules, binding signal results are on record in publication PMC6555819, “Comprehensive study of nuclear receptor DNA binding provides a revised framework for understanding receptor specificity”.

Common to all, as to test: no ligand; PBM; 270 nM : 90 nM RXRa; PBS pH 7.4, 2% milk, 0.02% Triton X-100, 1 mM DTT, BSA, 0.4 mg/ml salmon testes DNA
In data set [1] the target is PPARa:RXRa (Homo sapiens, UniProt Q07869;P19793 full;full). The note with it: tags: GST kept;His cleaved; copies: 1;1; label: surface-attached array probe. The method in brief: (§1)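 Scanned fluorescence from custom Agilent 4×180K protein-binding microarrays was regression-normalized. Binding z-scores use random background probes as reference. Ligand-free nuclear receptor dimers were incubated on the arrays for 1 h and detected with antibodies against each partner (one per run).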

In data set [2] the target is RARa:RXRa (Homo sapiens, UniProt P10276;P19793 full;full). The note with it: tags: His kept;His cleaved; copies: 1;1; label: surface-attached array probe. Summed up:
as §1

Data set [3] deals with FXR:RXRa (Homo sapiens, UniProt Q96RI1;P19793 full;full). Conditions: tags: His kept;His cleaved; copies: 1;1; label: surface-attached array probe. The method in brief:
as §1

Data set [4] has as its target RARg:RXRa (Homo sapiens, UniProt P13631;P19793 full;full). The note with it: tags: His kept;His cleaved; copies: 1;1; label: surface-attached array probe. The method in brief:
as §1

Sequence of RARg:RXRa (P13631 whole entry, chain 1 of 2): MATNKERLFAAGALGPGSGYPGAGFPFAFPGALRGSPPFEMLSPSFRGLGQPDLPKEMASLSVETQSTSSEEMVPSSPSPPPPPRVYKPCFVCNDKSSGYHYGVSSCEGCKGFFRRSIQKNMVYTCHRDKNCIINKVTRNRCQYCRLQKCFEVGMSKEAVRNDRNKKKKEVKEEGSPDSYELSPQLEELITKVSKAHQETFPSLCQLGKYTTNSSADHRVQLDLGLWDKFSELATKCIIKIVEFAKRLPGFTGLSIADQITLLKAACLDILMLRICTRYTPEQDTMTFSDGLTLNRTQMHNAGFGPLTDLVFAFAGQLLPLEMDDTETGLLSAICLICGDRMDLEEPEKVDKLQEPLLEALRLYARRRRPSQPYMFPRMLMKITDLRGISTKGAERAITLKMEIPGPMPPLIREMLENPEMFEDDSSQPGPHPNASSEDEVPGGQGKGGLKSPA
Sequence of RARg:RXRa (P19793 whole entry, chain 2 of 2): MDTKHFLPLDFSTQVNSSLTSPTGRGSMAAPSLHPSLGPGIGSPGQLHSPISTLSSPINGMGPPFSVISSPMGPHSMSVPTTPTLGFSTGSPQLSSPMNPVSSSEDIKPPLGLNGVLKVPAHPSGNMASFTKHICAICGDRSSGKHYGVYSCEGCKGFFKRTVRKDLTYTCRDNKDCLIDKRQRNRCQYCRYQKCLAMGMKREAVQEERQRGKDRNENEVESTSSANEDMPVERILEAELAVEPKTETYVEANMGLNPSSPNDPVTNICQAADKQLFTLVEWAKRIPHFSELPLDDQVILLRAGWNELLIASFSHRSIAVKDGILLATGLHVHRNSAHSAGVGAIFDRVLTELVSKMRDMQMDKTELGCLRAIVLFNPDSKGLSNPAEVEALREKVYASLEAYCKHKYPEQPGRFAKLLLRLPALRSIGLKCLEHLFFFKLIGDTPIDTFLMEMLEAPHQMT
Sequence of RARa:RXRa (P10276 whole entry, chain 1 of 2): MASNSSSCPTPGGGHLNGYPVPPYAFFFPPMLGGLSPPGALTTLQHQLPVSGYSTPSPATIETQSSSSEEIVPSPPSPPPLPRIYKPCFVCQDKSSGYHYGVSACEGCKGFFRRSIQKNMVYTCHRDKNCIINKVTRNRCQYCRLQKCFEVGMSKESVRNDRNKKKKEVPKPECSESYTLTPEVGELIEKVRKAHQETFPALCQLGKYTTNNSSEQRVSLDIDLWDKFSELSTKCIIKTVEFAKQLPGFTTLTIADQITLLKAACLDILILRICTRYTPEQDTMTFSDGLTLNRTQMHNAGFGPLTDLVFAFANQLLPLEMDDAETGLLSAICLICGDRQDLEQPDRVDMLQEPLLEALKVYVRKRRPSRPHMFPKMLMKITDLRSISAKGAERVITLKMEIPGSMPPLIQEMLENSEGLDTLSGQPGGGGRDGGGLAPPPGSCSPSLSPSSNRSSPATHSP
Sequence of RARa:RXRa (P19793 whole entry, chain 2 of 2): as the sequence (P19793 whole entry, chain 2 of 2) above
Sequence of FXR:RXRa (Q96RI1 whole entry, chain 1 of 2): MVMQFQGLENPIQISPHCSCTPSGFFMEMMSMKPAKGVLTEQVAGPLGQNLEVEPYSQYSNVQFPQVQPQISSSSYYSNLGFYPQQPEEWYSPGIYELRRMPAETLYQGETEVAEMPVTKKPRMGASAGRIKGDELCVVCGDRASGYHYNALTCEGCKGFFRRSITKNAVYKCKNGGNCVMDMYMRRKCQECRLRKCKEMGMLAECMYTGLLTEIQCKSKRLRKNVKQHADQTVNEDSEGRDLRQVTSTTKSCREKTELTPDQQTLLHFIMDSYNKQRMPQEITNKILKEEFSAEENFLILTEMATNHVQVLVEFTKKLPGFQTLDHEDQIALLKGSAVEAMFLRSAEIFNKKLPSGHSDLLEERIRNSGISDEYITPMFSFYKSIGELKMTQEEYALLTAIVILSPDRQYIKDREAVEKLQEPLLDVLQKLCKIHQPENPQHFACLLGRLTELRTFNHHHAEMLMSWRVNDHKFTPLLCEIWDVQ
Sequence of FXR:RXRa (P19793 whole entry, chain 2 of 2): as the sequence (P19793 whole entry, chain 2 of 2) above
Sequence of PPARa:RXRa (Q07869 whole entry, chain 1 of 2): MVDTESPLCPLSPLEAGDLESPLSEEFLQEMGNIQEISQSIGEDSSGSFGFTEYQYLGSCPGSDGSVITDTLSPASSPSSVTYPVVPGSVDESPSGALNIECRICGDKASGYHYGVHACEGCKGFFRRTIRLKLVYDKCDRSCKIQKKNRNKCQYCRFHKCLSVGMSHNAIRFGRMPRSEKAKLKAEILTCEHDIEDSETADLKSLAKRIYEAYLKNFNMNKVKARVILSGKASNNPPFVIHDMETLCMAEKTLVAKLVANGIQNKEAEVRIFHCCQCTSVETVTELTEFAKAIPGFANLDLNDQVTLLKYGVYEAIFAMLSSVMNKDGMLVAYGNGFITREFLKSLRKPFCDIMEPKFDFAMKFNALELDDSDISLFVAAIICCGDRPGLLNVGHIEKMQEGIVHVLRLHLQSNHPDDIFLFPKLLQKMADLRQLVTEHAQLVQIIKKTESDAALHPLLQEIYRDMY
Sequence of PPARa:RXRa (P19793 whole entry, chain 2 of 2): as the sequence (P19793 whole entry, chain 2 of 2) above

B1: NRC3_random_hg19_271_o1 (dsDNA)
DNA 1: GCCTCCCTCCCATCGCCTGAACCTGCTGGAATGAGCGCGATTGACAGCGTAGAATGAAGG
DNA 2: CCTTCATTCTACGCTGTCAATCGCGCTCATTCCAGCAGGTTCAGGCGATGGGAGGGAGGC
Regarding B1, the binding signal was 0.08 PBM z-score against 500 random probes in data set [1] and 0.16 PBM z-score against 500 random probes in data set [2].

B2: NRC3_random_hg19_146_o1 (dsDNA)
DNA 1: GCGCCTCTAGGTCTTTGAGGAATTGCCACACTGTCTGCGATTGACAGCGTAGAATGAAGG
DNA 2: CCTTCATTCTACGCTGTCAATCGCAGACAGTGTGGCAATTCCTCAAAGACCTAGAGGCGC
For the molecule B2, the binding signal in data set [2] was -0.8 PBM z-score against 500 random probes.

B3: NRC3_wobSeed114_DR4_T12C_o1 (dsDNA)
DNA 1: GCAATACAGGGCCATCGTAGGCCAGAGTACGCACAGGCGATTGACAGCGTAGAATGAAGG
DNA 2: CCTTCATTCTACGCTGTCAATCGCCTGTGCGTACTCTGGCCTACGATGGCCCTGTATTGC
For the molecule B3, the binding signal in data set [2] was -0.01 PBM z-score against 500 random probes.

B4: NRC3_random_hg19_60_o1 (dsDNA)
DNA 1: GCGTGCTCACATGTCACATTCTGGTGATTCTTGCAAGCGATTGACAGCGTAGAATGAAGG
DNA 2: CCTTCATTCTACGCTGTCAATCGCTTGCAAGAATCACCAGAATGTGACATGTGAGCACGC
Consider B4, for which the figures for the binding signal in data set [3] and in data set [2] were -0.25 PBM z-score against 500 random probes and 0.05 PBM z-score against 500 random probes, respectively.

B5: NRC3_wobSeed30_DR1_G16C_o1 (dsDNA)
DNA 1: GCACTAGCAGGCCAACGGTCACTCAAGATTAGTCCGGCGATTGACAGCGTAGAATGAAGG
DNA 2: CCTTCATTCTACGCTGTCAATCGCCGGACTAATCTTGAGTGACCGTTGGCCTGCTAGTGC
Turning to B5, the binding signal in data set [2] was 0.08 PBM z-score against 500 random probes.

B6: NRC3_random_hg19_496_o1 (dsDNA)
DNA 1: GCAGCATCTGACAAGGCTGACTACTCCCATCTGGATGCGATTGACAGCGTAGAATGAAGG
DNA 2: CCTTCATTCTACGCTGTCAATCGCATCCAGATGGGAGTAGTCAGCCTTGTCAGATGCTGC
Take B6: in data set [2], the binding signal was -0.43 PBM z-score against 500 random probes.

B7: NRC3_wobSeed42_DR1_T12A_o1 (dsDNA)
DNA 1: GCTATACAGGGACAAAGGCCAGAGTACGAATGTCGAGCGATTGACAGCGTAGAATGAAGG
DNA 2: CCTTCATTCTACGCTGTCAATCGCTCGACATTCGTACTCTGGCCTTTGTCCCTGTATAGC
Consider B7, for which the binding signal in data set [2] was 0.27 PBM z-score against 500 random probes.

B8: NRC3_random_hg19_349_o1 (dsDNA)
DNA 1: GCAGTGTATGCTAAACACCTTCACTTACCTTCCTCAGCGATTGACAGCGTAGAATGAAGG
DNA 2: CCTTCATTCTACGCTGTCAATCGCTGAGGAAGGTAAGTGAAGGTGTTTAGCATACACTGC
With B8, the binding signal was -0.1 PBM z-score against 500 random probes in data set [2] and 0.03 PBM z-score against 500 random probes in data set [4].

B9: NRC3_random_hg19_454_o1 (dsDNA)
DNA 1: GCTGTCCTTTGTAGCAACATGTATGGAAATGGAGGCGCGATTGACAGCGTAGAATGAAGG
DNA 2: CCTTCATTCTACGCTGTCAATCGCGCCTCCATTTCCATACATGTTGCTACAAAGGACAGC
As to B9, the binding signal in data set [2] is 0.46 PBM z-score against 500 random probes.

B10: NRC3_wobSeed76_DR3_T21G_o1 (dsDNA)
DNA 1: GCCCTACTGGGCCAAAAAGGGCATTGATGCCGATAAGCGATTGACAGCGTAGAATGAAGG
DNA 2: CCTTCATTCTACGCTGTCAATCGCTTATCGGCATCAATGCCCTTTTTGGCCCAGTAGGGC
On to B10, for which the binding signal in data set [2] was -0.04 PBM z-score against 500 random probes.

B11: NRC3_random_hg19_470_o1 (dsDNA)
DNA 1: GCCAGGAAGGGACAAAGGCCAGGCATGGTGGTTCATGCGATTGACAGCGTAGAATGAAGG
DNA 2: CCTTCATTCTACGCTGTCAATCGCATGAACCACCATGCCTGGCCTTTGTCCCTTCCTGGC
Regarding B11, the binding signal in data set [2] is -0.18 PBM z-score against 500 random probes.

B12: NRC3_wobSeed93_DR3_A9C_o1 (dsDNA)
DNA 1: GCAGTCAACGTTCATCTAGGTAACGTAAGATATGCTGCGATTGACAGCGTAGAATGAAGG
DNA 2: CCTTCATTCTACGCTGTCAATCGCAGCATATCTTACGTTACCTAGATGAACGTTGACTGC
Take B12: in data set [2], the binding signal is 0.24 PBM z-score against 500 random probes.

B13: NRC3_random_hg19_40_o1 (dsDNA)
DNA 1: GCAAGAACCAGTGGATTCATAAGGGTGACAGTTCAGGCGATTGACAGCGTAGAATGAAGG
DNA 2: CCTTCATTCTACGCTGTCAATCGCCTGAACTGTCACCCTTATGAATCCACTGGTTCTTGC
On to B13, for which, in data set [2], the binding signal is 0.33 PBM z-score against 500 random probes.

B14: NRC3_random_hg19_133_o1 (dsDNA)
DNA 1: GCTCAAGGAGAAAGACACTCCTTTGAAGCGTTGGAAGCGATTGACAGCGTAGAATGAAGG
DNA 2: CCTTCATTCTACGCTGTCAATCGCTTCCAACGCTTCAAAGGAGTGTCTTTCTCCTTGAGC
For the molecule B14, the binding signal in data set [2] was -0.29 PBM z-score against 500 random probes.

B15: NRC3_wobSeed32_DR1_G18A_o1 (dsDNA)
DNA 1: GCTCTTGTAGATCAAAGATTAAGAAAGCCGAAGCCTGCGATTGACAGCGTAGAATGAAGG
DNA 2: CCTTCATTCTACGCTGTCAATCGCAGGCTTCGGCTTTCTTAATCTTTGATCTACAAGAGC
In the case of B15, the binding signal in data set [2] is 0.26 PBM z-score against 500 random probes.

B16: NRC3_random_hg19_489_o1 (dsDNA)
DNA 1: GCAACAAAGCCTGTATGACAGCACATCTGTGTACAGGCGATTGACAGCGTAGAATGAAGG
DNA 2: CCTTCATTCTACGCTGTCAATCGCCTGTACACAGATGTGCTGTCATACAGGCTTTGTTGC
For the molecule B16, the values for the binding signal in data set [2] and in data set [4] were -0.79 PBM z-score against 500 random probes and -0.12 PBM z-score against 500 random probes, respectively.

B17: NRC3_random_hg19_466_o1 (dsDNA)
DNA 1: GCAGCTTGACTTTGGTGACATTCTTCCTTCGTCCCTGCGATTGACAGCGTAGAATGAAGG
DNA 2: CCTTCATTCTACGCTGTCAATCGCAGGGACGAAGGAAGAATGTCACCAAAGTCAAGCTGC
For the molecule B17, the binding signal in data set [2] was 0.17 PBM z-score against 500 random probes.

B18: NRC3_wobSeed27_DR1_G17C_o1 (dsDNA)
DNA 1: GCACTCGGAGGACAAACGTCAGAGCTACGCCAGTGAGCGATTGACAGCGTAGAATGAAGG
DNA 2: CCTTCATTCTACGCTGTCAATCGCTCACTGGCGTAGCTCTGACGTTTGTCCTCCGAGTGC
Consider B18, for which the binding signal in data set [2] is -0.3 PBM z-score against 500 random probes; in data set [4], 0.21 PBM z-score against 500 random probes.

B19: NRC3_random_hg19_116_o1 (dsDNA)
DNA 1: GCTGGGCACATGAGGGATGGGAGTTGATCTCTGTGGGCGATTGACAGCGTAGAATGAAGG
DNA 2: CCTTCATTCTACGCTGTCAATCGCCCACAGAGATCAACTCCCATCCCTCATGTGCCCAGC
As for B19, the binding signal in data set [2] was -0.48 PBM z-score against 500 random probes.

B20: NRC3_wobSeed136_DR5_C23T_o1 (dsDNA)
DNA 1: GCTAGCCTAGGTCATTCAGGGGTCAGTATAGAAAGCGCGATTGACAGCGTAGAATGAAGG
DNA 2: CCTTCATTCTACGCTGTCAATCGCGCTTTCTATACTGACCCCTGAATGACCTAGGCTAGC
On to B20, for which the values for the binding signal in data set [2] and in data set [4] were 7.49 PBM z-score against 500 random probes and 8.33 PBM z-score against 500 random probes, respectively.

B21: NRC3_random_hg19_382_o1 (dsDNA)
DNA 1: GCAATGAAGTGGATGCATGGTTGGTGGCTCAGCAGCGCGATTGACAGCGTAGAATGAAGG
DNA 2: CCTTCATTCTACGCTGTCAATCGCGCTGCTGAGCCACCAACCATGCATCCACTTCATTGC
In the case of B21, the binding signal in data set [2] was -0.69 PBM z-score against 500 random probes.

B22: NRC3_wobSeed122_DR5_T9A_o1 (dsDNA)
DNA 1: GCGCTAGTAGGTCAGTAAAAGGTCACACACCGGTCGGCGATTGACAGCGTAGAATGAAGG
DNA 2: CCTTCATTCTACGCTGTCAATCGCCGACCGGTGTGTGACCTTTTACTGACCTACTAGCGC
Take B22: the binding signal in data set [2] was 7.6 PBM z-score against 500 random probes; in data set [4], 7.87 PBM z-score against 500 random probes.

B23: NRC3_random_hg19_362_o1 (dsDNA)
DNA 1: GCGCCTTCTGCACCTCCTCAGTCCCTCTCCCTTTCCGCGATTGACAGCGTAGAATGAAGG
DNA 2: CCTTCATTCTACGCTGTCAATCGCGGAAAGGGAGAGGGACTGAGGAGGTGCAGAAGGCGC
As to B23, the binding signal in data set [2] was 0.1 PBM z-score against 500 random probes; in data set [4], -0.73 PBM z-score against 500 random probes.

B24: NRC3_random_hg19_308_o1 (dsDNA)
DNA 1: GCATGAACCACTTGAAGGGTGTGGCCTCCATCTTGCGCGATTGACAGCGTAGAATGAAGG
DNA 2: CCTTCATTCTACGCTGTCAATCGCGCAAGATGGAGGCCACACCCTTCAAGTGGTTCATGC
As to B24, the binding signal was -0.1 PBM z-score against 500 random probes in data set [3] and 0.27 PBM z-score against 500 random probes in data set [2].

B25: NRC3_wobSeed134_DR5_A9C_o1 (dsDNA)
DNA 1: GCGCTGCTCGGTCAACTGATGGTCAGCTAAAGCTCGGCGATTGACAGCGTAGAATGAAGG
DNA 2: CCTTCATTCTACGCTGTCAATCGCCGAGCTTTAGCTGACCATCAGTTGACCGAGCAGCGC
With B25, the figures for the binding signal in data set [1] and in data set [2] were 0.3 PBM z-score against 500 random probes and 0.23 PBM z-score against 500 random probes, respectively.

B26: NRC3_random_hg19_279_o1 (dsDNA)
DNA 1: GCTGCAGTGGTAACAGTCTGACTTCTAAACTGCTATGCGATTGACAGCGTAGAATGAAGG
DNA 2: CCTTCATTCTACGCTGTCAATCGCATAGCAGTTTAGAAGTCAGACTGTTACCACTGCAGC
For B26, the binding signal in data set [2] is -0.56 PBM z-score against 500 random probes.

B27: NRC3_random_hg19_267_o1 (dsDNA)
DNA 1: GCGCCTCAGTCATGAGTCACATGAAAGTGACTCACCGCGATTGACAGCGTAGAATGAAGG
DNA 2: CCTTCATTCTACGCTGTCAATCGCGGTGAGTCACTTTCATGTGACTCATGACTGAGGCGC
With B27, the binding signal in data set [2] is -0.31 PBM z-score against 500 random probes.
